Among the data in paper PMC9984387, “The dynamic nature of netrin-1 and the structural basis for glycosaminoglycan fragment-induced filament formation” (Nature Communications, 2023) are Kd values, retold here.

This assay addresses His-tagged NET1ΔC (coated in ELISA) (not stated (chicken or mouse cDNA cloned)). Description: ELISA; NET1ΔC coated; serial dilutions of strep-tagged HSPGs (0.5–500 nM) in solution; detection with strep-HRP; apparent constants.

“glypican-3 (AF185614 aa 25-557 R357A) (from UniProt Q8CFZ4 25-557) (domain or fragment)”: the Kd was 10 to 20 nM.
